Measurements: article PMC8060872

Key:
Assay in all cases: AUC
[1] = biological target: C-terminally truncated SARS-CoV main protease Δ(201–306) (SARS-CoV)
[2] = biological target: C-terminally truncated SARS-CoV main protease Δ(293–306) (SARS-CoV)
[3] = biological target: N-terminally truncated SARS-CoV main protease Δ(1–4) (SARS-CoV)
[4] = biological target: N-terminally truncated SARS-CoV main protease Δ(1–5) (SARS-CoV)
[5] = biological target: N-terminally truncated SARS-CoV main protease Δ(1–6) (SARS-CoV)
[6] = biological target: N-terminally truncated SARS-CoV main protease Δ(1–7) (SARS-CoV)

Substance: C-terminally truncated SARS-CoV main protease Δ(201–306) (domain or fragment)
- Kd [1]: 7870 µM

Substance: C-terminally truncated SARS-CoV main protease Δ(293–306) (domain or fragment)
- Kd [2]: 163 µM

Substance: N-terminally truncated SARS-CoV main protease Δ(1–4) (domain or fragment)
- Kd [3]: 57.5 µM

Substance: N-terminally truncated SARS-CoV main protease Δ(1–5) (domain or fragment)
- Kd [4]: 35.4 µM

Substance: N-terminally truncated SARS-CoV main protease Δ(1–6) (domain or fragment)
- Kd [5]: 151 µM

Substance: N-terminally truncated SARS-CoV main protease Δ(1–7) (domain or fragment)
- Kd [6]: 357 µM
